Assay results as given in the DeepSol protein solubility set.

Experiment: soluble on expression in E. coli; label from the status in PepcDB or PDB records

| Sequence | soluble on expression in E. coli |
| --- | --- |
| MSLSHVLQELRDVRQASHKVSQGARVLFPCELLSALSLLQTSAQASYQAVVETGLGLARGLREQILKAAAILGVADPSGIYIQPEDEHRLDVVGRLFEAMLRDSCLYPQSRVWIGHLLVPVAKVALRDSCLLETDHHPVWRLLMLLVDACNGNKGEDPAEHALLMQVRETVETVVREFDDDVTLFQTQQAALSMHYEQYVAKTRNTQRHVAECEITEERRQQAQRVADDALKQCLLGHVLPQQIEHFLRRIWCAHVQQVALLNDDNGQALKAVLALGDALLVQWRQASEGSIPERPWLYEERAGILEAFCIAGMTLVEAEAGFANLQHVLAAATPQSSVIATSTQTQSFDTFISVPDTSATSELNTASPSYFRELPLGTWLDFIGIDGRIQSGQLSWVSPISGRLMFVNHRGRRLCVTAPEELSTLMCLGRLRLHRAGDSLMSEGHHHHHH | not soluble |
| YPMVNNYLEMGHGLYVVEIHVKSNLHDTPLSKLISRGSYNIQPILVKREEAVYTNINDEFVLNEFDTLLLCGSRAELKYVAPRLV | not soluble |
| MGSDKIHHHHHHVTSEIKRGVSLYSYQNETFQGKMTLEDCIRTSAELGAKGIEIIGEQTFWGWPECGVAQADVDTWHRLIKQYDCTPVSHDFMLDYKRYKGREMPFDEQVASVKNDVDFGARLGMKYIRALVSIAPEVLVAAAPYAEEKGIKILIEVHAPLHFDHPWIIRHAEAFEKSGSDALGFLPDMGMFLFAFPPVWKEKFLRIGVPKNIADYVEKAYEDRVLSEYVILNVQQMGGTGPAIAMAETLRHNAAFEPRRMLDYMHRIHNVHGKFYQMNEDYVEPSIPYDEIVKVLKQGGFNGYICSEYEGNRWIEDAEEPDSVEQVRRQQVMLARLLGETEVPTIQTSPTASAMAEAAA | not soluble |
| MVEKHLLEFLEKLQFLISKNVKISHYGIENVKKICGVDIAYKGNLGFSVGVSMDINSGDYNYKSYVGEVNFPYIPGFLFMREAPLMIKAIEGLDCHLLLVDGHGIAHPRKSGIAAVIGVLLDFPTIGVAKSRLTGDLVNESEITYVYLNGEKVGVKFGRYFYSPGNKVDLQDCIELGKRGYPKVLKIADMLTKKIKKE | soluble |
| MSTSQTKNVSIDTIKEFMYQVLLKVGSDEENARMVRDTLIAADLRGMDTHGIQRFKTVYIDRIKKGMINPTAKPSIIRETSTTCVLDGNNGFGHVNGTIGMKMAIEKAKKYGMGMVVVRNSTHFGIAGYYSLLAAQEGCIGICGTNARSSVAATFGDEPILGTNPLAIGIPSDEAFPYCFDGATSISPTGRFEKYVRMGKTVDKSWASMKGGKPIEDPKELLENYPKGKAYLHPLGGSDEVSGSHKGYCLSEFVEIMSSCLSIANFLNHIEEEKEKSGKFSLGHFFIAINVECFRDLNEFKKNVGDINRTLRNTDKLPGHDRIYTAGEKEYETEQKRRKFGDDLPLVTINEMKELSSFYNVPLPF | soluble |
| MAKMTTLKMKERLEKELQAPNRQFSYNRDNDALTVVQSGKKVTLAIPQIIANYENDGDAAVEKIVYYVEEGFRAAAGNVELENNKANVYPVVRATSFPGETKAGEVLLTDDHTAETKIFYAVDLGKSYRFIEESMLKKAQLTHEEIREAAFNNLANLEIPLKKDSVNGNDFYFVRTNDGYDASRLLNEAFLREMREKLTGEMVLAVPHQDVLIIGDIQDNTGYDVLAHMTMDFFADGLVPITSLPFVYNNGKLEPIFIMAKNRLKE | not soluble |
| GPGSDGVWLEELEMEPSQYLPDLKEDELLKTPAVMVNLNRPMPEVLQELSKHPVRTRLSLTGTIIVARDSAHARMREMLEAGKPLPQYMKEHPVYYAGPAKQPDGLPSGSFGPTTAGRMDPFVDLFQSHGGSMVMLAKGNRSKQVTKACHKYGGFYLGSIGGPAAVLAQNAIKKVECLDMKDLGMEAVWRIEVENFPAFIVVDDKGNDFFEQL | soluble |
| MAHHHHHHMLRGTRGFLAVSPGVGIAPETTPVKYTPMMLNIQNMMWWNGKRNLYRATYREKTWYEISRTGAFTKGRRPVMRQKYSREALQAALAMVPPGFEVADVPRPPQRILAQSEGIVGRWYSNYWTLHSMRYQCLLAGVEWPLGERQRPRTNYDEPFFFADFEESKAIQDYRSRWINVNRSLVGMTKRMKEAEEEARYMQFRKLQDTFWSNRKVLVNRVKSMYNQGARTSAKDMPIKTINIKAFLSE | not soluble |
| MLNIQNYSASPHPGIVAERPQTPSASEHVETAVVPSTTEHRGTDIISLSQAATKIHQAQQTLQSTPPISEENNDERTLARQQLTSSLNALAKSGVSLSAEQNENLRSAFSAPTSALFSASPMAQPRTTISDAEIWDMVSQNISAIGDSYLGVYENVVAVYTDFYQAFSDILSKMGGWLLPGKDGNTVKLDVTSLKNDLNSLVNKYNQINSNTVLFPAQSGSGVKVATEAEARQWLSELNLPNSCLKSYGSGYVVTVDLTPLQKMVQDIDGLGAPGKDSKLEMDNAKYQAWQSGFKAQEENMKTTLQTLTQKYSNANSLYDNLVKVLSSTISSSLETAKSFLQGLEHHHHHH | soluble |
| MGSDKIHHHHHHMHDKFLNYFDETARQGSIRKAAAVLNMSSSSLNRKIISTENRLGIRLFDRHADGVTLTEAGVVVLEHCRNTLFDYQRIVNMVEDIRDMRTGHIDILTLDSIALSVLPEVLDDFQDAYPQVAYTIQTDEPHAVMQAVANGTADIGLSFSNDLHPDVRCQAEKSTPIGAIMAHDHPLAERDLIEVGDLAPYQLIRSYDSQTHRSFVNEAVSSLGVQLSTQMVTNSLPLAKTMILNGRGVGIYSKIGFIEEIEDGRLRYVAINSPLLRELRIGVLISARTGLLPVQHLLARALSKSLRSLRLDS | not soluble |
| MGSDKIHHHHHHMEIEIATIGGYEEVGRQMTAVRAGDDIVIFDMGLNLSKVLVHDNVETEKMHSLDLIDMGAIPDDRVMSDLEGDVKAIVPTHGHLDHIGAISKLAHRYDAPIVGSPFTIELVKGEIESEQKFGVENDLVKMEAGGTMEIGDRCELEFVHVTHSIIDAINPVLHTPEGAVVYGLDKRMDHDPVLEDPIDMERFREIGREGEGVLCYIEDCTNAGKKGRTPSESTARRHLKDVLTSVADYDGGIVATTFSSHISRVSSLVEFAKEIGREPILLGRSMERYSGTAERMGRVNFPDDLGMFGHRKSVDRAFKRVMNEGKENFLPIVTGHQGEPQAMLTRMGRGETPYDIEDGDKIIFSASVIPEPTNKGQRYQSEQLLRMQGARIYDDIHVSGHLREEGHYQMLDALQPQHLIPAHQDMKGMAPYAKLAKSQGYKIGRDLHMTENGNTIQLVE | not soluble |
| MKNWIVGMVALVTMVPVMAATPWQKITHPVAGSPQSIGGFANGCVIGAQPLPLESADYQVMRSDQRRYFGHPDLLNFIHRLSAQTHQQQLGTVLIGDMAMPAGGRFSSGHASHQSGLDVDIWLQLPKQRWSQQQLLKPQPIDLVAVDGKRVIPALWQPQIESLIKLAAKDNDVTRIFVNPAIKKQLCLDAGADRQWLHKVRPWFAHRAHMHVRLRCPANSLECVDQDTPPPGDGCGAELESWFQPPPPSAKPGKTLPPPLPPSCQALLDNHFATE | not soluble |
| MGSDKIHHHHHHMVEVLTESNQSLDSLEALCSKYRIERGIVATVVDLNERILAELAALPFPLLWLNHETPLPVGNLYETPETLGYDRIAAVVGANEQFPHNDILVIDAGTCITYEFIDSKGQYHGGNISPGMQMRYKALHQFTGRLPLIDSNGRKLPMGRDTETAIRAGVLKGMEYEISGYIEAMKHKYPELLVFLTGGDDFSFDSSVKSAIFADRFLVLKGLNRILNYNNGRI | not soluble |
| MGSDKIHHHHHHMDDDSNQKPLFHMALGVLTSLTPPQHHIELVDEHFHDKINYDGDYDMVGITSRTIEATRAYEIADEFRKRGKTVVLGGLHISFNPEEAAAHADCIVVGEADNLWTTLLDDVANNRLKERYDSKDFPPVKAITPLDYARIAKASKRTKVDGTKSIPIYVTRGCPFNCSFCVTPNFTGKQYRVQDPKLLKHQIEEAKKYFFKANGKNSKPWFMLTDENLGINKKKLWESLDLLKECDITFSVFLSINFLEDPTTVKKLVDAGCNFVLAGLESIKQSTLEAYNKGHVNSAEKYSKIIEDCRKAGLNIQGNFLFNPAIDTFEDIDELVQFVKKNHIFMPIFQIITPYPGTQMYHEYRESGLITIEDWEKYNALHLVIKSDRYEPLLFQYKVLKSYVEVYTWKEILLRTLYNPRKLINLVTSIAFKKHLAAQLKAFERNHKMNPAMLSGVKPVMNG | not soluble |
| MRNLSDRAKFESMINSPSKSVFVRNLNELEALAVRLGKSYRIQLDQAKEKWKVK | not soluble |
| QGEIRVGPSHQAKLPDLQPFPSPDGDTVTQHEELVWMPGVNDCDLLMYLRAARSMAAFAGMCDGGSTEDGCVAASRDDTTLNALNTLHESGYDAGKALQRLVKKPVPKLIEKCWTEDEVKRFVKGLRQYGKNFFRIRKELLPNKETGELITFYYYWKKT | not soluble |
| MCTTCGCAEGNLYIEGDEHNPHSAFRSAPFAPAARPALNITGIKTPDFAPSQTAEGDLHYGHGEAGTHAPGMSQRRMLEVEIDVLDKNNRLAERNRARFAARQQLVLNLVSSPGSGKTTLLTETLMKLKDRVPCAVIEGDQQTVNDAARIRATGTPAIQVNTGKGCHLDAQMIADAAPRLPLDDHGILFIENVGNLVCPASFDLGEKHKVAVLSVTEGEDKPLKYPHMFAAASLMLLNKVDLLPYLNFDVEKCIASAREVNPEIEIILISATSGEGMDQWLAWLEAQRCA | not soluble |
| MSKNERMVGISRRTLVKSTAIGSLALAAGGFSLPFTLRNAAAAVQQAREKVVWGACSVNCGSRCALRLHVKDNEVTWVETDNTGSDEYGNHQVRACLRGRSIRRRINHPDRLNYPMKRVGKRGEGKFERISWDEALDTIASSLKKTVEQYGNEAVYIQYSSGIVGGNMTRSSPSASAVKRLMNCYGGSLNQYGSYSTAQISCAMPYTYGSNDGNSTTDIENSKLVVMFGNNPAETRMSGGGITYLLEKAREKSNAKMIVIDPRYTDTAAGREDEWLPIRPGTDAALVAGIAWVLINENLVDQPFLDKYCVGYDEKTLPADAPKNGHYKAYILGEGDDKTAKTPQWASQITGIPEDRIIKLAREIGTAKPAYICQGWGPQRQANGELTARAIAMLPILTGNVGISGGNSGARESTYTITIERLPVLDNPVKTSISCFSWTDAIDHGPQMTAIRDGVRGKDKLDVPIKFIWNYAGNTLVNQHSDINKTHEILQDESKCEMIVVIENFMTSSAKYADILLPDLMTVEQEDIIPNDYAGNMGYLIFLQPVTSEKFERKPIYWILSEVAKRLGPDVYQKFTEGRTQEQWLQHLYAKMLAKDPALPSYDELKKMGIYKRKDPNGHFVAYKAFRDDPEANPLKTPSGKIEIYSSRLAEIARTWELEKDEVISPLPVYASTFEGWNSPERRTFPLQLFGFHYKSRTHSTYGNIDLLKAACRQEVWINPIDAQKRGIANGDMVRVFNHRGEVRLPAKVTPRILPGVSAMGQGAWHEANMSGDKIDHGGCVNTLTTLRPSPLAKGNPQHTNLVEIEKI | soluble |
| MAHHHHHHMTTAGQSDAFTRVSLHSVTALGKCPAPFSDPIAVKVVLEVFGCPPKHSIDVKFTWKPIWDFPVDQVLDEFEVGPLATVGKHELVLHSDPPDVAKIPDPTGPTALTIAFTYRGKQFLHIGYNAVVLCEGEMPDVFEDAAMLSRQLTQCFKKETTIAWDEDHEDVEEKTVINGKDNDISDVKEKDHNGHAAYDDEAKVPEGVSPTKKKARCEGSLSQ | soluble |
| MSLQTSDQYSIQEVVDAGHGFFGETTGGLAKVVERAFQQYGLPNGYILGQEGSGAFVAGLTYGEGTLYTKNAGQHPVFWQGPSLGLDYGGQGTRAMMLVYNLPSVDALYRRYGGVSGSAFIVAGVGMTYLKSSDVTLAPIRTGIGARLGINVGYLKLTQQPTWNPFEGHHHHHH | soluble |
| MGSDKIHHHHHHMELPCSLLCFVETLAVLRRSKSLSNEIIATGSRLVAGPSGAQDRAMTATRYDKNAKNVLGQELVPCSLDPVTGFYRNGCCETGPHDLGLHTVCAVMTRDFLAFSKAQGNDLSTPRPDLAFPGLKPGDRWCLCAGRWKEALDAGMAPQVVLEATHEEMLAVVPLGVLKDHAAA | not soluble |
